From article doi:10.1101/790667 (bioRxiv, 2019)
* marks the point of attachment. Dansyl = CN(C)c1cccc2c(S(=O)(=O)*)cccc12

T1: human CASK PDZ domain (residues 487-572) (human, UniProt O14936 487-572)
T1 sequence (looked up): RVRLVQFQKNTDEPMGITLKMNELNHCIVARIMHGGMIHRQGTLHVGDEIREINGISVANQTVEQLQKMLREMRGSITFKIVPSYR

B1: Syndecan1 peptide (residues 303-310) (peptide)
peptide: Dansyl-TKQEEFYA-OH
SMILES: C[C@H](NC(=O)[C@H](Cc1ccc(O)cc1)NC(=O)[C@H](Cc1ccccc1)NC(=O)[C@H](CCC(=O)O)NC(=O)[C@H](CCC(=O)O)NC(=O)[C@H](CCC(N)=O)NC(=O)[C@H](CCCCN)NC(=O)[C@@H](NS(=O)(=O)c1cccc2c(N(C)C)cccc12)[C@@H](C)O)C(=O)O
B2: Neurexin peptide (residues 1,470-1,477) (peptide)
peptide: Dansyl-NKDKEYYV-OH
SMILES: CC(C)[C@H](NC(=O)[C@H](Cc1ccc(O)cc1)NC(=O)[C@H](Cc1ccc(O)cc1)NC(=O)[C@H](CCC(=O)O)NC(=O)[C@H](CCCCN)NC(=O)[C@H](CC(=O)O)NC(=O)[C@H](CCCCN)NC(=O)[C@H](CC(N)=O)NS(=O)(=O)c1cccc2c(N(C)C)cccc12)C(=O)O
B3: Caspr4 peptide (residues 1,301-1,308) (peptide)
peptide: Dansyl-ENQKEYFF-OH
SMILES: CN(C)c1cccc2c(S(=O)(=O)N[C@@H](CCC(=O)O)C(=O)N[C@@H](CC(N)=O)C(=O)N[C@@H](CCC(N)=O)C(=O)N[C@@H](CCCCN)C(=O)N[C@@H](CCC(=O)O)C(=O)N[C@@H](Cc3ccc(O)cc3)C(=O)N[C@@H](Cc3ccccc3)C(=O)N[C@@H](Cc3ccccc3)C(=O)O)cccc12

Molecular target: T1, human CASK PDZ domain (residues 487-572)
Assay: differential scanning fluorimetry

binding result | Binder
binds | B1
binds | B2
binds | B3
